From patent publication US20160368965A1 (IMMATICS BIOTECHNOLOGIES, published 2016)

Target: T1, HLA-A*02:01 (human)
T1 construct: the tested peptide takes its place; also called peptide-receptive MHC molecules; MHC class I
Assay: UV-ligand exchange, anti-β2m ELISA; grade of peptide exchange yield
From the text: Candidate peptides for T cell based therapies according to the present invention were further tested for their MHC binding capacity (affinity). The individual peptide-MHC complexes were produced by UV-ligand exchange, where a UV-sensitive peptide is cleaved upon UV-irradiation, and exchanged with the peptide of interest as analyzed. Only peptide candidates that can effectively bind and stabilize the peptide-receptive MHC molecules prevent dissociation of the MHC complexes. To determine the yield of the exchange reaction, an ELISA was performed based on the detection of the light chain (β2m) of stabilized MHC complexes. The assay was performed as generally described in Rodenko et al. (Rodenko et al., 2006).
96 well MAXISorp plates (NUNC) were coated over night with 2 ug/ml streptavidin in PBS at room temperature, washed 4× and blocked for 1h at 37° C. in 2% BSA containing blocking buffer. Refolded HLA-A*02:01/MLA-001 monomers served as standards, covering the range of 15-500 ng/ml. Peptide-MHC monomers of the UV-exchange reaction were diluted 100 fold in blocking buffer. Samples were incubated for 1 h at 37° C., washed four times, incubated with 2 ug/ml HRP conjugated anti-β2m for 1h at 37° C., washed again and detected with TMB solution that is stopped with […]. Absorption was measured at 450 nm. Candidate peptides that show a high exchange yield (preferably higher than 50%, most preferred higher than 75%) are generally preferred for a generation and production of antibodies or fragments thereof, and/or T cell receptors or fragments thereof, as they show sufficient avidity to the MHC molecules and prevent dissociation of the MHC complexes.

Binder	peptide exchange yield
YAFPKAVSV [YAFPKAVSV (SEQ ID NO: 147)]	20 to 50%
LLLAAARLAAA [LLLAAARLAAA (SEQ ID NO: 111)]	50 to 75%
ALLEPEFILKA [ALLEPEFILKA (SEQ ID NO: 152)]	≥ 75%
ALFQPHLINV [ALFQPHLINV (SEQ ID NO: 150)]	≥ 75%
SLMDPNKFLLL [SLMDPNKFLLL (SEQ ID NO: 115)]	50 to 75%
SMMDPNHFL [SMMDPNHFL (SEQ ID NO: 116)]	≥ 75%
TLWYRPPEL [TLWYRPPEL (SEQ ID NO: 118)]	50 to 75%
FLFGEEPSKL [FLFGEEPSKL (SEQ ID NO: 130)]	50 to 75%
FVDTRTLL [FVDTRTLL (SEQ ID NO: 1)]	20 to 50%
NIFPNPEATFV [NIFPNPEATFV (SEQ ID NO: 138)]	50 to 75%
ILLTGTPAL [ILLTGTPAL (SEQ ID NO: 110)]	50 to 75%
VLGDDPQLMKV [VLGDDPQLMKV (SEQ ID NO: 119)]	50 to 75%
ALPKEDPTAV [ALPKEDPTAV (SEQ ID NO: 153)]	50 to 75%
SVDGVIKEV [SVDGVIKEV (SEQ ID NO: 117)]	50 to 75%
FVYGGPQVQL [FVYGGPQVQL (SEQ ID NO: 107)]	50 to 75%
FLWAGGRASYGV [FLWAGGRASYGV (SEQ ID NO: 132)]	50 to 75%
VLISGVVHEI [VLISGVVHEI (SEQ ID NO: 146)]	50 to 75%
ALYEKDNTYL [ALYEKDNTYL (SEQ ID NO: 129)]	50 to 75%
GLIDYDTGI [GLIDYDTGI (SEQ ID NO: 16)]	50 to 75%

Binder	peptide exchange yield
KLGPEGELL [KLGPEGELL (SEQ ID NO: 137)]	50 to 75%
FLSEVFHQA [FLSEVFHQA (SEQ ID NO: 105)]	50 to 75%
ALYYNPHLL [ALYYNPHLL (SEQ ID NO: 11)]	20 to 50%
FLQPDLDSL [FLQPDLDSL (SEQ ID NO: 104)]	50 to 75%
ALFVRLLAL [ALFVRLLAL (SEQ ID NO: 18)]	20 to 50%
ILGTEDLIVEV [ILGTEDLIVEV (SEQ ID NO: 149)]	50 to 75%
KLFPGFEIETV [KLFPGFEIETV (SEQ ID NO: 136)]	≥ 75%
FILANEHNV [FILANEHNV (SEQ ID NO: 15)]	50 to 75%
FLIEEQKIVV [FLIEEQKIVV (SEQ ID NO: 131)]	50 to 75%
LMMSEDRISL [LMMSEDRISL (SEQ ID NO: 113)]	50 to 75%
ILLAEGRLVNL [ILLAEGRLVNL (SEQ ID NO: 134)]	50 to 75%
FGYDGDFYRA [FGYDGDFYRA (SEQ ID NO: 2)]	50 to 75%
LLLDPDTAVLKL [LLLDPDTAVLKL (SEQ ID NO: 155)]	50 to 75%
ILASVILNV [ILASVILNV (SEQ ID NO: 109)]	≥ 75%
KVADLVLML [KVADLVLML (SEQ ID NO: 154)]	50 to 75%
AQYKFVYQV [AQYKFVYQV (SEQ ID NO: 12)]	50 to 75%
VLLPDERTISL [VLLPDERTISL (SEQ ID NO: 160)]	≥ 75%
YLDEDTIYHL [YLDEDTIYHL (SEQ ID NO: 121)]	20 to 50%
VLLDKIKNL [VLLDKIKNL (SEQ ID NO: 10)]	20 to 50%

The next lines start with the values.

peptide exchange yield	Binder
20 to 50%	YLHNQGIGV [YLHNQGIGV (SEQ ID NO: 148)]
50 to 75%	GLIDIENPNRV [GLIDIENPNRV (SEQ ID NO: 20)]
50 to 75%	SLFPHNPQFI [SLFPHNPQFI (SEQ ID NO: 114)]
50 to 75%	ALLGKLDAINV [ALLGKLDAINV (SEQ ID NO: 125)]
50 to 75%	SLLNPPETLNL [SLLNPPETLNL (SEQ ID NO: 140)]
50 to 75%	FIIDNPQDLKV [FIIDNPQDLKV (SEQ ID NO: 14)]
50 to 75%	GLIDYDTGIRL [GLIDYDTGIRL (SEQ ID NO: 17)]
≥ 75%	ALSDLALHFL [ALSDLALHFL (SEQ ID NO: 127)]
50 to 75%	SIDRNPPQL [SIDRNPPQL (SEQ ID NO: 139)]
50 to 75%	ALFEESGLIRI [ALFEESGLIRI (SEQ ID NO: 124)]
50 to 75%	KLDDTYIKA [KLDDTYIKA (SEQ ID NO: 135)]
20 to 50%	FIDSSNPGL [FIDSSNPGL (SEQ ID NO: 13)]
50 to 75%	FVWSGTAEA [FVWSGTAEA (SEQ ID NO: 106)]
50 to 75%	MLLEIPYMAA [MLLEIPYMAA (SEQ ID NO: 157)]
50 to 75%	LLLPPPPCPA [LLLPPPPCPA (SEQ ID NO: 156)]
20 to 50%	TAVALLRLL [TAVALLRLL (SEQ ID NO: 144)]
20 to 50%	ILDDVSLTHL [ILDDVSLTHL (SEQ ID NO: 133)]
50 to 75%	SLYGYLRGA [SLYGYLRGA (SEQ ID NO: 142)]
50 to 75%	LLSDVRFVL [LLSDVRFVL (SEQ ID NO: 112)]
50 to 75%	TTFPRPVTV [TTFPRPVTV (SEQ ID NO: 145)]
20 to 50%	KISTITPQI [KISTITPQI (SEQ ID NO: 123)]
50 to 75%	YLPDIIKDQKA [YLPDIIKDQKA (SEQ ID NO: 161)]
≥ 75%	ALLDIIRSL [ALLDIIRSL (SEQ ID NO: 151)]
50 to 75%	ALYDVRTILL [ALYDVRTILL (SEQ ID NO: 128)]
≥ 75%	ALLSLDPAAV [ALLSLDPAAV (SEQ ID NO: 126)]
≥ 75%	SLIEKYFSV [SLIEKYFSV (SEQ ID NO: 158)]
≥ 75%	MQAPRAALVFA [MQAPRAALVFA (SEQ ID NO: 122)]
50 to 75%	SLLDLHTKV [SLLDLHTKV (SEQ ID NO: 159)]
50 to 75%	ALWHDAENQTVV [ALWHDAENQTVV (SEQ ID NO: 19)]
